Among the data in the Human Domainome abundance scans (Beltran et al. 2025) are abundance fitness values, retold here.

B1: LIM and senescent cell antigen-like-containing domain protein 2, residues 13 to 71; numbered along this chain, Q7Z4I7 (parent)
chain: AVCQRCQARFSPAERIVNSNGELYHEHCFVCAQCFRPFPEGLFYEFEGRKYCEHDFQML

± gives the uncertainty stated by the source.

Variants of B1 are the subject of this data set. Kind of data set: abundance fitness (aPCA) (normalised: wild type 0, dead -1); higher = more abundant; growth selection in yeast, the domain comes from the species named. The settings on record: Homo sapiens.
In the case of H25L, the abundance fitness was -0.668 ± 0.06.

For H25C, the abundance fitness came out at 0.048 ± 0.095.

As for H25Q, the abundance fitness is -0.987 ± 0.17.

As to H25S, the abundance fitness is -0.894 ± 0.095.

Turning to H25T, the abundance fitness is -0.808 ± 0.12.

For the variant H25R, the abundance fitness was -0.784 ± 0.083.

Turning to F46P, the abundance fitness is -0.902 ± 0.17.

As for F46M, the abundance fitness is -0.241 ± 0.1.

Consider P12I, for which the abundance fitness was determined as 0.045 ± 0.081.

For the variant P12T, the abundance fitness was found to be 0.003 ± 0.075.

Turning to P12M, the abundance fitness was 0.014 ± 0.09.

On to P12D, for which the abundance fitness stood at 0.145 ± 0.22.

Take P12F: the abundance fitness is -0.036 ± 0.13.

Regarding P12S, the abundance fitness was determined as 0.014 ± 0.061.

For A1K, the abundance fitness turned out to be 0.066 ± 0.15.

In the case of A1N, the abundance fitness was -0.481 ± 0.41.

Turning to A1Q, the abundance fitness was -0.313 ± 0.18.

As to C6I, the abundance fitness was -1.16 ± 0.36.

Regarding C6E, the abundance fitness is -0.968 ± 0.24.

As for C6Q, the abundance fitness is -0.878 ± 0.16.

For C6W, the abundance fitness is -0.769 ± 0.095.

As to C6H, the abundance fitness was -1.08 ± 0.31.

Regarding C6A, the abundance fitness is -0.84 ± 0.18.

Turning to F38E, the abundance fitness was -0.512 ± 0.099.

As to F38Q, the abundance fitness is -0.606 ± 0.096.

F38L: the abundance fitness turned out to be 0.045 ± 0.061.

On to F38M, for which the abundance fitness was -0.225 ± 0.086.

As to F38T, the abundance fitness was -0.123 ± 0.067.

For the variant F38D, the abundance fitness was -0.522 ± 0.2.

F38R: the abundance fitness is -0.571 ± 0.078.

F38N: the abundance fitness was -0.113 ± 0.42.

For the variant S11R, the abundance fitness is -0.175 ± 0.061.

On to S11L, for which the abundance fitness was -0.053 ± 0.05.

For S11E, the abundance fitness was 0.019 ± 0.078.

S11I: the abundance fitness was -0.248 ± 0.12.

Consider S11G, for which the abundance fitness is -0.011 ± 0.063.

For the variant S11N, the abundance fitness is -0.105 ± 0.12.

Take A8Q: the abundance fitness came to 0.147 ± 0.061.

A8E: the abundance fitness came to 0.327 ± 0.077.

Consider A8I, for which the abundance fitness came to 0.073 ± 0.073.

As to A8N, the abundance fitness was -0.03 ± 0.08.

In the case of A8C, the abundance fitness is 0.03 ± 0.067.

Consider L59P, for which the abundance fitness was -0.235 ± 0.13.

L59T: the abundance fitness is -0.141 ± 0.11.

For L59F, the abundance fitness is -0.616 ± 0.2.

On to L59V, for which the abundance fitness turned out to be 0.036 ± 0.098.

L59Q: the abundance fitness is -0.069 ± 0.13.

Consider L59C, for which the abundance fitness is -0.033 ± 0.12.

Take L59I: the abundance fitness was 0.099 ± 0.16.

Regarding L59A, the abundance fitness is 0.035 ± 0.12.

As to L59W, the abundance fitness is -0.348 ± 0.096.

For the variant P39H, the abundance fitness is -0.383 ± 0.089.

P39G: the abundance fitness is -0.159 ± 0.055.

Regarding P39T, the abundance fitness is -0.091 ± 0.056.

For P39R, the abundance fitness was -0.107 ± 0.041.

For the variant P39W, the abundance fitness is -0.206 ± 0.053.

Turning to P39K, the abundance fitness was -0.064 ± 0.064.

As for P39L, the abundance fitness is -0.211 ± 0.047.

Turning to F35H, the abundance fitness was found to be 0.224 ± 0.095.

In the case of F35D, the abundance fitness is 0.153 ± 0.1.

Regarding F35W, the abundance fitness is -0.076 ± 0.1.

Y24D: the abundance fitness was -0.444 ± 0.1.

As to Y24H, the abundance fitness was -0.16 ± 0.078.

As to Y24L, the abundance fitness is -0.057 ± 0.037.

Take P37L: the abundance fitness was -0.349 ± 0.069.

Regarding P37T, the abundance fitness is -0.148 ± 0.098.

Regarding P37S, the abundance fitness is -0.016 ± 0.066.

Turning to P37V, the abundance fitness is -0.193 ± 0.071.

Regarding P37K, the abundance fitness is -0.214 ± 0.097.

Turning to I16C, the abundance fitness was -0.069 ± 0.078.

Consider I16V, for which the abundance fitness was -0.194 ± 0.059.

In the case of I16N, the abundance fitness is -0.174 ± 0.065.

On to I16Y, for which the abundance fitness was -0.2 ± 0.082.

For I16M, the abundance fitness turned out to be 0.026 ± 0.055.

On to I16L, for which the abundance fitness was -0.023 ± 0.042.

On to I16E, for which the abundance fitness is -0.341 ± 0.13.

Q33A: the abundance fitness turned out to be 0.024 ± 0.065.

For Q33L, the abundance fitness was -0.195 ± 0.071.

As for Q33V, the abundance fitness was 0.071 ± 0.069.

As for Q33M, the abundance fitness was -0.068 ± 0.082.

For the variant Q33R, the abundance fitness was -0.077 ± 0.091.

On to F10T, for which the abundance fitness was -0.093 ± 0.068.

Take F10Y: the abundance fitness is -0.359 ± 0.1.

Take F10R: the abundance fitness is -0.601 ± 0.081.

With F10L, the abundance fitness is 0.05 ± 0.049.

Take F10D: the abundance fitness is -1.05 ± 0.24.

Regarding F10Q, the abundance fitness was -0.707 ± 0.1.

Regarding F10N, the abundance fitness was -0.607 ± 0.19.

With F10M, the abundance fitness was -0.002 ± 0.084.

As for F10A, the abundance fitness was -0.389 ± 0.1.

As for F10W, the abundance fitness is -0.523 ± 0.1.

With F10C, the abundance fitness was -0.139 ± 0.086.

Regarding E40K, the abundance fitness was -0.039 ± 0.057.

Regarding E40L, the abundance fitness was -0.068 ± 0.041.

For E40V, the abundance fitness was -0.266 ± 0.052.

As for R5W, the abundance fitness was -0.184 ± 0.081.

For R5N, the abundance fitness was -0.081 ± 0.13.

Regarding R5V, the abundance fitness is 0.119 ± 0.061.

For the variant R5Q, the abundance fitness came to 0.066 ± 0.073.

As for R5E, the abundance fitness was determined as 0.037 ± 0.077.

With R5A, the abundance fitness came out at 0.186 ± 0.079.

Consider R5M, for which the abundance fitness was found to be 0.129 ± 0.077.

In the case of F29E, the abundance fitness is -0.326 ± 0.12.

As for F29I, the abundance fitness is 0.015 ± 0.097.

Regarding F29W, the abundance fitness is 0.008 ± 0.079.

Regarding F29P, the abundance fitness was 0.029 ± 0.074.

F29N: the abundance fitness was -0.175 ± 0.12.

On to F29Q, for which the abundance fitness is -0.184 ± 0.069.

With F29A, the abundance fitness came to 0.207 ± 0.16.

On to V2R, for which the abundance fitness was -0.002 ± 0.082.

With V2G, the abundance fitness is 0.129 ± 0.11.

For V2K, the abundance fitness was found to be 0.018 ± 0.14.

For the variant V2F, the abundance fitness was -0.324 ± 0.11.

With V2T, the abundance fitness was 0.011 ± 0.098.

Take V2N: the abundance fitness was -0.139 ± 0.13.

Consider H27G, for which the abundance fitness was -0.294 ± 0.23.

H27Q: the abundance fitness came out at 0.148 ± 0.31.

Regarding H27V, the abundance fitness is -0.001 ± 0.31.

With H27F, the abundance fitness is -0.209 ± 0.43.

Consider L23E, for which the abundance fitness is -0.18 ± 0.065.

As for L23C, the abundance fitness was -0.185 ± 0.091.

As for L23T, the abundance fitness is -0.009 ± 0.048.

For the variant L23N, the abundance fitness is -0.076 ± 0.11.

Take L23W: the abundance fitness is -0.168 ± 0.055.

Turning to R15A, the abundance fitness is -0.178 ± 0.06.

For R15N, the abundance fitness is -0.184 ± 0.1.

For the variant R15T, the abundance fitness worked out at 0.037 ± 0.06.

Regarding R15Q, the abundance fitness was -0.021 ± 0.065.

With V17L, the abundance fitness is -0.003 ± 0.053.

Consider V17R, for which the abundance fitness was -0.117 ± 0.049.

For the variant V17H, the abundance fitness worked out at 0.01 ± 0.12.

With V17D, the abundance fitness was -0.298 ± 0.24.

Regarding V17N, the abundance fitness is -0.147 ± 0.14.

In the case of V17E, the abundance fitness is -0.251 ± 0.087.

V17G: the abundance fitness is -0.372 ± 0.079.

For the variant V17F, the abundance fitness was -0.019 ± 0.095.

As for E14G, the abundance fitness was -0.05 ± 0.076.

Regarding E14I, the abundance fitness is -0.611 ± 0.19.

Consider E14T, for which the abundance fitness was -0.242 ± 0.082.

Turning to E14W, the abundance fitness is -0.428 ± 0.087.

As for E14P, the abundance fitness was -0.577 ± 0.11.

Turning to E14A, the abundance fitness was 0.048 ± 0.076.

With E14C, the abundance fitness was -0.156 ± 0.092.

In the case of E14Q, the abundance fitness was -0.106 ± 0.079.

As to G48H, the abundance fitness was -0.411 ± 0.13.

As to G48W, the abundance fitness is -0.838 ± 0.087.

Take G48M: the abundance fitness was -0.398 ± 0.066.

Consider G48S, for which the abundance fitness is -0.021 ± 0.044.

Consider G48T, for which the abundance fitness is -0.15 ± 0.061.

For Q57C, the abundance fitness is -0.352 ± 0.12.

As to Q57F, the abundance fitness was -0.346 ± 0.12.

Q57H: the abundance fitness came out at 0.056 ± 0.1.

As to Q57N, the abundance fitness came out at 0.062 ± 0.11.

On to Q57A, for which the abundance fitness is -0.077 ± 0.089.

On to Q57S, for which the abundance fitness is -0.145 ± 0.074.

Consider R9V, for which the abundance fitness is -0.019 ± 0.063.

As to R9W, the abundance fitness was -0.034 ± 0.079.

For the variant R9L, the abundance fitness was -0.122 ± 0.052.

As for R9T, the abundance fitness is -0.019 ± 0.068.

On to V30M, for which the abundance fitness is -0.311 ± 0.1.

For the variant V30T, the abundance fitness was -0.065 ± 0.084.

Consider V30W, for which the abundance fitness is -0.411 ± 0.13.

Regarding V30L, the abundance fitness is -0.021 ± 0.062.

As for V30Q, the abundance fitness was -0.265 ± 0.13.

As for V30F, the abundance fitness is -0.097 ± 0.092.

For V30K, the abundance fitness is -0.224 ± 0.11.

In the case of C34N, the abundance fitness is -0.865 ± 0.38.
